Assay results taken from US20130136748A1 (Ablynx, published 2013).

Key:
human HER1 [1] = molecular target: T1, human HER1 (human, UniProt P00533 25-1210); assay: FACS, CHO-HER1
T1 construct: also called EGFR; ErbB1

human HER2 [2] = molecular target: T2, human HER2 (human, UniProt P04626 23-1255); assay: FACS, CHO-HER2
T2 construct: also called hHER2

human HER4 [3] = molecular target: T3, human HER4 (human, UniProt Q15303 26-1308); assay: FACS, CHO-HER4
human HER1 [4] = molecular target: T1, human HER1; assay: FACS CHO-HER1, 222 nM
human HER1 [5] = molecular target: T1, human HER1; assay: FACS CHO-HER1, 667 nM
human HER2 [6] = molecular target: T2, human HER2; assay: FACS CHO-HER2, 222 nM
human HER2 [7] = molecular target: T2, human HER2; assay: FACS CHO-HER2, 667 nM
human HER4 [8] = molecular target: T3, human HER4; assay: FACS CHO-HER4, 222 nM
human HER4 [9] = molecular target: T3, human HER4; assay: FACS CHO-HER4, 667 nM
human HER1 [10] = molecular target: T1, human HER1; assay: FACS CHO-HER1, 2000 nM
human HER2 [11] = molecular target: T2, human HER2; assay: FACS CHO-HER2, 2000 nM
human HER4 [12] = molecular target: T3, human HER4; assay: FACS CHO-HER4, 2000 nM
hHER3 full length [13] = molecular target: T4, hHER3 full length (human, UniProt P21860 20-1342); assay: cell-based or functional assay
hHER3 full length [14] = molecular target: T4, hHER3 full length; assay: cell-based or functional assay; remark: listed apart in the source
[15] = molecular target: T5, hHER3 ECD (human HER3 extracellular domain) (human, UniProt P21860 20-643); assay: ELISA, coated hHER3-ECD
T5 construct: also called recombinant HER3-ECD

[16] = molecular target: T6, cHER3ECD (Maccaca fascicularis HER3 extracellular domain) (Macaca fascicularis, UniProt P21860 20-643 (human entry)); assay: ELISA, coated cHER3-ECD
T6 construct: also called cyno HER3ECD; cyno HER3-ECD
T6 chain: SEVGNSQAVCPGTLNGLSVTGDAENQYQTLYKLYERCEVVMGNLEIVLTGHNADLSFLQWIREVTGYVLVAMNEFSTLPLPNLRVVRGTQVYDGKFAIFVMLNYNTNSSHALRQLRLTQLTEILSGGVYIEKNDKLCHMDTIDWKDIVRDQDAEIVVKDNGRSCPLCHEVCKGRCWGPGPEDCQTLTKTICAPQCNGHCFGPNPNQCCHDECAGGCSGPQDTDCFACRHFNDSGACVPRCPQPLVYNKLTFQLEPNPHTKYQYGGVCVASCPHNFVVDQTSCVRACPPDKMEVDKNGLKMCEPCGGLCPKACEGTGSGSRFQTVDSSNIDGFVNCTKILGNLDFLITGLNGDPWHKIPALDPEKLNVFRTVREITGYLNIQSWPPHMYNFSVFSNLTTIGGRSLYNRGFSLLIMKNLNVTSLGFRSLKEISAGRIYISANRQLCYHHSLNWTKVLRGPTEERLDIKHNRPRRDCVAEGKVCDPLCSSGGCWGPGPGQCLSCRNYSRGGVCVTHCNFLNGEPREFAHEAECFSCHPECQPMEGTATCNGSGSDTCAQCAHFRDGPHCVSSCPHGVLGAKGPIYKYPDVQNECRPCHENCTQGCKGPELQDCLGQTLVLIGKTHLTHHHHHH

[17] = molecular target: T7, Chimeric chicken Her3-human domain 2 (AA207-328 human) (chicken/human chimera); assay: FACS, HEK293 with chimeric HER3
T7 construct: Transmembrane and extracellular regions, on HEK293 cells
T7 chain: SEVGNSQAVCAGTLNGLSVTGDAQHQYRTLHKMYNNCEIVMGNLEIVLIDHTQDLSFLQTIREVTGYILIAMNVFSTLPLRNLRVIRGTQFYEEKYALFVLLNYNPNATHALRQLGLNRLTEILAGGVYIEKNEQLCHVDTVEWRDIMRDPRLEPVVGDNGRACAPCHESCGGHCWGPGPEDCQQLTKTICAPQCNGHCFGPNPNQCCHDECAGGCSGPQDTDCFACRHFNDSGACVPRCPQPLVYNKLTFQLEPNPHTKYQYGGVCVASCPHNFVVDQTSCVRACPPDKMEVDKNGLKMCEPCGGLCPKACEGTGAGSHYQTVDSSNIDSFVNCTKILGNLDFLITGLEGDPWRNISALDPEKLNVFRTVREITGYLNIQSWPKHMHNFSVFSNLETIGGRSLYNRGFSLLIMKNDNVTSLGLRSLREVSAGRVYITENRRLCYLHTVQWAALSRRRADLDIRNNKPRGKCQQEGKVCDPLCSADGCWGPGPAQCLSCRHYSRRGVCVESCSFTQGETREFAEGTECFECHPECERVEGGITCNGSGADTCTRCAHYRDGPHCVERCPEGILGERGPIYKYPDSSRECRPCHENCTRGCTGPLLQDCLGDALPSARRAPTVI

[18] = molecular target: T8, human HER3-Fc (R&D Systems, 348-RB) (human, UniProt P21860 20-643); assay: SPR, HER3-Fc captured by anti-Fc
T8 construct: Bought; also called hHER3-Fc; Fc-HER3; Fc part of the bought chimera not given, not described

hHER3 full length [19] = molecular target: T4, hHER3 full length; assay: FACS, 400 nM, competitor 04C07-biotin
hHER3 full length [20] = molecular target: T4, hHER3 full length; assay: FACS, 400 nM, competitor 04F10-biotin
hHER3 full length [21] = molecular target: T4, hHER3 full length; assay: FACS, 400 nM, competitor 17C08-biotin
hHER3 full length [22] = molecular target: T4, hHER3 full length; assay: FACS, 400 nM, competitor 18E08-biotin
hHER3 full length [23] = molecular target: T4, hHER3 full length; assay: FACS, 400 nM, competitor 21B02-biotin
hHER3 full length [24] = molecular target: T4, hHER3 full length; assay: FACS, 400 nM, competitor 23F05-biotin

T3 sequence (Q15303 26-1308 limits assumed): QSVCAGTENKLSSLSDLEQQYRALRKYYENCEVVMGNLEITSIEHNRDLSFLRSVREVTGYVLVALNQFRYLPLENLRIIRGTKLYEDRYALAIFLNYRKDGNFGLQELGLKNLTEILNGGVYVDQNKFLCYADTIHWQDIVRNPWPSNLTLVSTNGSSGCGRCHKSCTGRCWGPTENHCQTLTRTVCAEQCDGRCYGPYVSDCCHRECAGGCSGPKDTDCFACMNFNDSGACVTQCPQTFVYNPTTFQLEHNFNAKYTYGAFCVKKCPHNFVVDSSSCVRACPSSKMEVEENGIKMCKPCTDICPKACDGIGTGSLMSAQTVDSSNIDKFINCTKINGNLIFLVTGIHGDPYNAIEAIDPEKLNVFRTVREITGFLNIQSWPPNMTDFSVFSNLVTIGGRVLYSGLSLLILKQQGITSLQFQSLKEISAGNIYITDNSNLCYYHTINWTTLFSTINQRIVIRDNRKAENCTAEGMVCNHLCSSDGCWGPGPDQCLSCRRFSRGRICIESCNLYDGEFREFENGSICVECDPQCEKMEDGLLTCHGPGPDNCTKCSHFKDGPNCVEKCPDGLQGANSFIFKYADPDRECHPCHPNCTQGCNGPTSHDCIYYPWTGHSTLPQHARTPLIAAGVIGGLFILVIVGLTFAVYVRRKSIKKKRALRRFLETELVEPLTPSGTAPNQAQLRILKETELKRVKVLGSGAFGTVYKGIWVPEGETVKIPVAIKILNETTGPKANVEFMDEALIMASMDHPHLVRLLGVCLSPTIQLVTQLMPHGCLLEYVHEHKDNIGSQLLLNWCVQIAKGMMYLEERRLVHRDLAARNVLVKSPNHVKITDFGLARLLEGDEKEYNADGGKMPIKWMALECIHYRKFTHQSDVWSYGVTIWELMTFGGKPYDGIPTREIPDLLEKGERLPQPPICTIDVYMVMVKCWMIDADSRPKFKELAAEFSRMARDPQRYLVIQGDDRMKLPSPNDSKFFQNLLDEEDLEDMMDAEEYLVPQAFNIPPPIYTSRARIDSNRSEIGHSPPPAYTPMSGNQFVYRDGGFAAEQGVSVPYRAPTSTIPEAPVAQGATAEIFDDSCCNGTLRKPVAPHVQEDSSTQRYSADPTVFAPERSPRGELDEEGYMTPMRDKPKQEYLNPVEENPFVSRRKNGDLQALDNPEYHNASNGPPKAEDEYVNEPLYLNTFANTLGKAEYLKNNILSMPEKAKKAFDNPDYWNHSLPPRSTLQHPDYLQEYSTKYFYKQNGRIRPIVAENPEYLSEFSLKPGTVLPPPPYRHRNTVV

B1: 18E08 (VHH)
VHH: EVQLVESGGGLVQPGGSLRLSCAASGTLFKINAMGWYRQAPGKQRELVALITSSDTTDYAESVEGRFTISRDNTWNAVYLQMNSLKPEDTAVYYCHSDHYSMGVPEKRVIMYGQGTQVTVSS
binding result (human HER1 [1]): no binding (tested: 2000 nM) | binding result (human HER2 [2]): no binding (tested: 2000 nM) | binding result (human HER4 [3]): no binding (tested: 2000 nM) | MCF (human HER1 [4]): 61 | MCF (human HER1 [5]): 62 | MCF (human HER2 [6]): 53 | MCF (human HER2 [7]): 52 | MCF (human HER4 [8]): 91 | MCF (human HER4 [9]): 80 | MCF (human HER1 [10]): 64 | MCF (human HER2 [11]): 78 | MCF (human HER4 [12]): 115 | IC50, HRG1-β1 induced pHER3, MCF-7 (hHER3 full length [13]): 6.39e-08 M | IC50, HRG1-β1 induced pHER3, MDA-MB468 (hHER3 full length [13]): 1.01e-07 M | IC50, HRG1-β1 induced pAkt, MCF-7 (hHER3 full length [14]): 5.69e-08 M | inhibition of HRG1-β1 induced pERK1/2, MCF-7 (hHER3 full length [14]): < 50 % inhibition | EC50 [15]: 4.7 nM | EC50 [16]: 4.4 nM | binding result [17]: binds | Kd [18]: 53.8 nM | kon [18]: 10400 M⁻¹ s⁻¹ | % competition (hHER3 full length [19]): 0% | % competition (hHER3 full length [20]): 0% | % competition (hHER3 full length [21]): 63% | % competition (hHER3 full length [22]): 86% | % competition (hHER3 full length [23]): 4% | % competition (hHER3 full length [24]): 0%
